Measured values: patent US20260034217A1 (REGENTS OF THE UNIVERSITY OF COLORADO A BODY CORPORATE, published 2026)

Target: CD64 (high affinity immunoglobulin gamma Fc receptor I) (human, UniProt P12314 16-374)
Assay: cell-based or functional assay

Chain of CD64 (high affinity immunoglobulin gamma Fc receptor I) (P12314 16-374, form in doubt): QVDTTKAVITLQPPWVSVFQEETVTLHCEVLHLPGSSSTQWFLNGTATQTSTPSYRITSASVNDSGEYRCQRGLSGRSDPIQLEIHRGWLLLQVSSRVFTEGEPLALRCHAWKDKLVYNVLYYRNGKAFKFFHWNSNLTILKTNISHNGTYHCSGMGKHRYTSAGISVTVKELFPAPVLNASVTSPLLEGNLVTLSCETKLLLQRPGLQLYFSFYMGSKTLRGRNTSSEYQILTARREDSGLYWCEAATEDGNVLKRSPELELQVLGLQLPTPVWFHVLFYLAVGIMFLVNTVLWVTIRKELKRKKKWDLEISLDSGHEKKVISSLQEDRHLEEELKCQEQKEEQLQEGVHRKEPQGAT

B1: CD64-BB-m22 CAR (CD64 CAR containing the m22 scFv and a 4-1BB costimulatory domain) (other)
chain: EVQLVESGGGLVKPGGSLRLSCVASGFIFSDNYMYWVRQTPEKRLEWVATISDGGSYTYYPDSVKGRFTISRDNAKNNLYLQMSSLKSEDTAIYYCARGYYRYEGAMDYWGQGTSVTVSSGGGGSGGGGSGGGGSNIVMTQSPSSLAVSAGEKVTMSCKSSQSVLYSSNQKNYLAWYQQKPGQSPKLLIYWASTRESGVPDRFTGSGSGTDFTLTISSVQAEDLAVYYCHQYLSSWTFGGGTKLEIKTSTTTPAPRPPTPAPTIASQPLSLRPEACRPAAGGAVHTRGLDFACDIYIWAPLAGTCGVLLLSLVITLYCKRGRKKLLYIFKQPFMRPVQTTQEEDGCSCRFPEEEEGGCELSRVKFSRSADAPAYQQGQNQLYNELNLGRREEYDVLDKRRGRDPEMGGKPRRKNPQEGLYNELQKDKMAEAYSEIGMKGERRRGKGHDGLYQGLSTATKDTYDALHMQALPPR
  fold decrease in CD64+ AML cells (monocytic patient sample), flow cytometry, CAR-T with or without ven/aza: > 40 fold
  fold decrease in viable AML cells (mixed monocytic/primitive patient sample), flow cytometry after 48 hours with CAR-T cells alone: 4.2 fold
